The values that follow come from PMC7865296, “T Cell Mediated Conversion of a Non-Anti-La Reactive B Cell to an Autoreactive Anti-La B Cell by Somatic Hypermutation †” (International Journal of Molecular Sciences, 2021).

Assay [1] has as its target T1, recombinant human La protein, full length (aa 1-408), His-tagged (Homo sapiens (Human)., UniProt P05455).
T1 construct: also called rhLa; hLa; not shown: His tag, C-terminal, kept
In words: SDS-PAGE and immunoblotting; human (rhLa) or mouse (rmLa) La protein recombinantly expressed in E. coli, denatured on the blot; probed with hybridoma supernatants. Conditions: one partner purified.

Assay [2] has as its target T2, Ro60 antigen (Homo sapiens (assumed), UniProt P10155).
T2 construct: Ro60 (Ro/SS-A) antigen used in the anti-Ro ELISA; also called Ro/SS-A
The assay can be described thus: ELISA; hybridoma supernatants on Ro60 antigen; performed as in ref. 59. For orientation: An ELISA detects its analyte on a solid surface through an enzyme-linked reagent.

Assay [3] addresses T3, GFP-La fusion protein La_(107–200) (Homo sapiens (Human)., UniProt P05455).
T3 construct: cloned into pEGFP-C2; pEGFP-C2 places GFP at the N-terminus of the insert (surmise); also called final La deletion mutant of Group 1; source: HeLa, transfected, in total extract
The assay can be described thus: SDS-PAGE and immunoblotting; total extracts of HeLa cells transfected with GFP-La fusion constructs (N- or C-terminally truncated La); probed with anti-La mabs; anti-GFP as control. Conditions: partners not purified. A general note: A western blot detects proteins with antibodies after separation by electrophoresis.

For assay [4], the target named is T4, eukaryotic human La protein of HeLa cells (Homo sapiens (Human)., UniProt P05455).
T4 construct: human La/SS-B autoantigen, endogenous in HeLa cells; also called hLa; source: endogenous, HeLa total extract; endogenous, fixed HeLa cells
T4 sequence (P05455 whole entry): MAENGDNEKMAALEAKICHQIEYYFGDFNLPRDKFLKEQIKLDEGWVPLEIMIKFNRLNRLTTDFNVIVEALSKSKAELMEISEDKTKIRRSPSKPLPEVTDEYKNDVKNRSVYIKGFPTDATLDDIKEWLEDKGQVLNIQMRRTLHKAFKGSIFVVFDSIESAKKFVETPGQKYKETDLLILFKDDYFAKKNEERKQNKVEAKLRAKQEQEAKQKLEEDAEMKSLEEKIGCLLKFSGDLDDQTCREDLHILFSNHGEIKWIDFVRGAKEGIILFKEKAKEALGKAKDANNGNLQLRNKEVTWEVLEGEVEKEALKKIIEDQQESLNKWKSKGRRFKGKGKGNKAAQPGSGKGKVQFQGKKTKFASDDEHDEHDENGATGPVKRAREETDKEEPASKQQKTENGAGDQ
In words: SDS-PAGE and immunoblotting; total extracts of human HeLa or mouse 3T3 cells, denatured on the blot; probed with hybridoma supernatants. Conditions: partners not purified.

Assay [5] concerns the target T5, GFP-La fusion protein La_(10–100) (Homo sapiens (Human)., UniProt P05455).
T5 construct: human La protein, residues 10-100 (La motif region); cloned into pEGFP-C2; pEGFP-C2 places GFP at the N-terminus of the insert (surmise); also called final La deletion mutant of Group 2; source: HeLa, transfected, in total extract
In words: SDS-PAGE and immunoblotting; total extracts of HeLa cells transfected with GFP-La fusion constructs (N- or C-terminally truncated La); probed with anti-La mabs; anti-GFP as control. Conditions: partners not purified.

Assay [6] deals with T6, recombinant mouse La protein (Mus musculus (Mouse)., UniProt P32067).
T6 construct: mouse La protein, open reading frame cloned into pET28b; also called rmLa; mLa (recombinant)
T6 sequence (P32067 whole entry): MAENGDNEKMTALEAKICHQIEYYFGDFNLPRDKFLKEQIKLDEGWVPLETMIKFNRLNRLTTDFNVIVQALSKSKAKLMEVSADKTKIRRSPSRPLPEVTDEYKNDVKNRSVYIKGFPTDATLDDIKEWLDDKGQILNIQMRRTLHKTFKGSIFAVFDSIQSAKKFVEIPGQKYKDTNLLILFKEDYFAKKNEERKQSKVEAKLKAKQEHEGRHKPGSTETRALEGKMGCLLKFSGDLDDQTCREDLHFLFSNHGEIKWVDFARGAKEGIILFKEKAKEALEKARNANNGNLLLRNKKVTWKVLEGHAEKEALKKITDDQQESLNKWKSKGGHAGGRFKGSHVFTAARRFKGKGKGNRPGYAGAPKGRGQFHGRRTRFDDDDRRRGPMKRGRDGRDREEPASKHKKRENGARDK
The assay can be described thus: SDS-PAGE and immunoblotting; human (rhLa) or mouse (rmLa) La protein recombinantly expressed in E. coli, denatured on the blot; probed with hybridoma supernatants. Conditions: one partner purified.

The target in assay [7] is T1, recombinant human La protein, full …. The assay can be described thus: SDS-PAGE and immunoblotting; recombinant human La (rhLa) on the blot; probed with purified recombinant 312B Ig4 or 312B ge Ig4. Conditions: both partners purified.
Assay [8] addresses T7, His-tagged La deletion mutant La_(278–408) (Homo sapiens (Human)., UniProt P05455).
T7 construct: cloned into pET28a
In words: SDS-PAGE and immunoblotting; His-tagged full length La and N- and C-terminally truncated La deletion mutants from E. coli (nickel-NTA); probed with 16C; 10-fold the usual amount of protein applied. Conditions: one partner purified.

Changes are numbered by the printed parent chain.

T5 sequence (P05455 10-100): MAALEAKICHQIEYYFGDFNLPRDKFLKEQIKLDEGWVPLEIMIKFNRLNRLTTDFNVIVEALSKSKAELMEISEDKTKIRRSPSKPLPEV
T1 sequence (P05455 whole entry, the tested form may be a part): as the sequence (P05455 whole entry) above
T3 sequence (P05455 107-200): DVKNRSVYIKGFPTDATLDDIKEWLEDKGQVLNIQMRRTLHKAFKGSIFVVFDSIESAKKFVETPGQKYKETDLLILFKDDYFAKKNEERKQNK
T2 sequence (P10155 whole entry): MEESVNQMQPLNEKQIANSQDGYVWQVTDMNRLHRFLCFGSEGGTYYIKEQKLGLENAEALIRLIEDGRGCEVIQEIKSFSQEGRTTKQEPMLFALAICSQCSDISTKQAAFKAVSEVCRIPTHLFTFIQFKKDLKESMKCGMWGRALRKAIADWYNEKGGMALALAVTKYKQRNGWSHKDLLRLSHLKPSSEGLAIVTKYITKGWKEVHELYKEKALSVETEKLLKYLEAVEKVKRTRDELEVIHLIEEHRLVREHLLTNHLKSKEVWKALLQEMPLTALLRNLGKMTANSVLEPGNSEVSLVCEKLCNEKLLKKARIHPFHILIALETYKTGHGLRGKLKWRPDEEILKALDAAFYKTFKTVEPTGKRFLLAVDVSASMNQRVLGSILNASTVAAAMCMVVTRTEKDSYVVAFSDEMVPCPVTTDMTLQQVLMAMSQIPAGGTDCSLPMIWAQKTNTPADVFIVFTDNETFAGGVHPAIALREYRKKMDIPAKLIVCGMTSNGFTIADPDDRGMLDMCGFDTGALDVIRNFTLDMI
T7 sequence (P05455 278-408, stated change not applied): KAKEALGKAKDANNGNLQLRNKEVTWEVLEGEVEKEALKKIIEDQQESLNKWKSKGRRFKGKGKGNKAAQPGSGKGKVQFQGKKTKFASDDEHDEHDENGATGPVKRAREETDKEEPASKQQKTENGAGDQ

B1: IgM type anti-Ro60 monoclonal antibody 312G (antibody, V domains shown)
VH: EVQLEESGPGLVAPSQSLSITCTVSGFSLSRYSVHWVRQPPGKGLEWLGMIWGGGSTDYNSALKSRLSISKDNSKSQVFLKMNSLQTDDTAIYYCATSNWPYAMDYWGQGTSVTVSS
VL: DIVMTQSPAIMSASPGEKVTMTCSASSSVSYMHWYQQKSGTSPKRWIYDTSKLASGVPARFSGSGSGTSYSLTISSMEAEDAATYYCQQWSSNPPTFGAGTKLELK
notes: variable heavy chain of 312G; variable light chain of 312G; IgM; Vl kk4, JK5; From the human La transgenic mouse; called polyreactive; also called anti-Ro mab (312G); anti-Ro60 mab; source: hybridoma cell culture supernatant
Consider B1, for which the results for the binding result in assay [1] and in assay [2] were “no binding” and “binds”, respectively.

B2: anti-La monoclonal antibody 24BG7 (antibody, V domains shown)
VH: QVQLQQSGAELARPGASVKLSCKASGYSLTNYGISWVKQRTGQGLEWIGEIYRGSGNSYYNEKFKGKASLTADKSSSTAYMQLSSLTSEDSAVYFCARGGLSFAYWGQGTLVTVSA
VL: B1 VL with D1Q, M4L, S30T, S76T, S91I, A99G, L105I
notes: variable heavy chain of 24BG7; variable light chain of 24BG7; IgG1; Vl kk4, JK2; From the human La transgenic mouse; also called Group 1 anti-La mab (24BG7); source: hybridoma cell culture supernatant
Turning to B2, the binding result in assay [3] was “binds”.

B3: anti-La monoclonal antibody 27E (antibody, V domains shown)
VH: EVQLQESGAELARPGASVKLSCKASGYSFRSYGINWVKQRTGQGLEWIGEIYPGSGTTFYNEKFRGKATLTADKSSSTAYMQLKSLTSEDSAVYFCARHGGYPFYFDYWGQGTTLTVSS
VL: DIVMTQSPAIMSASPGEKVTISCSASSSVSYMYWYQQKPGSSPKPWIYRTSNLASGVPARFSGSGSGTSYSLTISSMEAEDAATYYCQQYHSYPRTFGGGTKLEIK
notes: variable heavy chain of 27E; variable light chain of 27E; IgG2b; Vl aa4, JK1; From the human La transgenic mouse; also called Group 2 anti-La mab (27E); source: hybridoma cell culture supernatant
Take B3: the binding result in assay [4], in assay [1] and in assay [5] was “binds” throughout.

B4: anti-La monoclonal antibody 32A (antibody, V domains shown)
VH: EVQLQQSGAELARPGASVKLSCKASGYTFTTYGLTWVKQRTGQGLEWIGEIFPGSGTTFYNEKFNDKATLTADKSSSTAYMQLTSLTSEDSAVYFCARYSNYPYYFDYWGQGTTLTVSS
VL: B3 VL with D1Q, M4L, A9T, A59D
notes: variable heavy chain of 32A; variable light chain of 32A; IgG1; Vl aa4, JK1; From the human La transgenic mouse; also called Group 2 anti-La mab (32A); source: hybridoma cell culture supernatant
On to B4, for which, in assay [5], the binding result is listed as “binds”.

B5: anti-La monoclonal antibody 2F9 (antibody, V domains shown)
VH: EVQLQESGPGILQPSQTLSLTCSFSGFSLSTSGMGVSWIRQPSGKGLEWLAHIYWDDDKGYNPSLKSRLTISKDTSRNQVFLKITSVDTADTATYYCARGDVEFDYWGQGTTLTVSS
VL: DIVLTQSTASLAVSLGQRATISCRASESVDSYGNSFMHWYQQKPGQPPKLLIYRASNLESGIPARFSGSGSRTDFTLTINPVEADDVATYYCQQSNEDPPTFGSGTKLEIK
notes: variable heavy chain of 2F9; variable light chain of 2F9; IgG1; Vl 21-5, JK4; From the human La transgenic mouse; also called Group 2 anti-La mab (2F9); source: hybridoma cell culture supernatant
As for B5, the binding result in assay [5] is “binds”.

B6: anti-La monoclonal antibody 22A (antibody, V domains shown)
VH: QVKLEESGPELVKPGAPVKISCKTSGYTFTNYYIYWVKQRPGQGLEWIGYIYPGNGGTAYNQKFKDKATLTADNPSNTAYMQLSSLTSEDSAVYLCARRGALGYYFDYWGQGTTLTVSS
VL: QIVLTQSPAIMSASPGEKVTMTCSASSSVSYMYWYQQKSGTSPKRWIYDTSKLASGVPARFSGSGSGTSYSLTISSMEAEDAATYYCQQWSSNPQFGTGTKLEVK
notes: variable heavy chain of 22A; variable light chain of 22A; IgG1; Vl kk4, JK5; From the human La transgenic mouse; also called Group 1 anti-La mab (22A); source: hybridoma cell culture supernatant
B6: the binding result in assay [3] is “binds”.

B7: anti-La monoclonal antibody 312B (antibody, V domains shown)
VH: QVKLQESGAELMKPGSSVKFSCKAAGYTFTDYWIEWLKQRPGHGLEWIGEILPGSVSIKYNEKFKGKATFTADTSSNTAYMQLSSLTSEDSAVYYCARSRSIYDGYFYYWGQGTTLTVSS
VL: DIVMTQSTASLSASVGETVTITCRASENIYTYLAWYQQKQGKSPQLLVYNAKTLAEGVPSRFSGSGSGTQFSLRINSLQPEDFGSYYCQHHYGTPYTFGGGTKLEIK
notes: IgG1; Vl 12-44, JK2; From the human La transgenic mouse; source: hybridoma cell culture supernatant
In the case of B7, the binding result in assay [4], in assay [1], in assay [6] and in assay [5] was “binds” each time.

B8: recombinant antibody based on the mature 312B sequence (scFv fused on a human IgG4 hinge and Fc) (Fc fusion, mouse)
VH: B7 VH
VL: B7 VL
notes: linker, printed as (Gly4Ser)3; VH-VL orientation; an Igkappa leader peptide was fused to the N-terminus for secretion; vector p6NST50; source: stably transduced 3T3 cell line, purified from cell culture supernatant (protein A); not shown: hinge and Fc (CH2-CH3) of human IgG4, C-terminal, kept
Regarding B8, the binding result in assay [7] is “binds”.

B9: recombinant antibody based on the germline 312B sequence (scFv fused on a human IgG4 hinge and Fc) (Fc fusion, mouse)
VH: QVQLQQSGAELMKPGASVKLSCKATGYTFTGYWIEWVKQRPGHGLEWIGEILPGSGSTNYNEKFKGKATFTADTSSNTAYMQLSSLTTEDSAIYYCARSRSIYDGYFDYWGQGTTLTVSS
VL: B7 VL with V3Q, T8P, T31S, R74K
notes: as for B8
For the molecule B9, the binding result in assay [7] was “no binding”.

B10: IgM type anti-La monoclonal antibody 16C (antibody, V domains shown)
VH: EVKLEESGPELVKPGSSVKISCKASGYTFTDYNMDWVKQSHGKSLEWIGAINPNNGGTSYNQKFKGKATLTVDKSSSTAYMELRSLTSEDSAVYYCARRDGGSYEWAMDYWGQGTSVTVSS
VL: DIVLTQSPASLSMAIGEKVTIRCITSTDIDDDMNWYQQKPGEPPKLLISEGNTLRPGVPSRFSSSGYGTDFVFTIENMLSEDVADYYCLQSDNLPLTFGGGTKLEIK
notes: variable heavy chain of 16C; variable light chain of 16C; IgM; Vl bt20, JK2; From the human La transgenic mouse; called polyreactive; also called anti-La mab (16C); source: hybridoma cell culture supernatant
Regarding B10, the binding result in assay [8] is given as “binds”.
